Drawing on publication PMC8091058, “Distinct intramolecular interactions regulate autoinhibition of vinculin binding in αT-catenin and αE-catenin” (The Journal of Biological Chemistry, 2021), this text covers Kd and dH for 1 molecule.

The target in experiment [1] is T1, αT-catenin M1-M3 (aa 260–626) (Mus musculus, UniProt Q65CL1 260-626).
T1 construct: αT-catenin, Mus musculus, M1-M3, aa 260-626; in pGEX-TEV; also called αT-catenin M-region; αT-catenin M1-M3 (260–626); source: E. coli BL21-Gold, purified (glutathione-agarose, TEV cleavage, Mono Q or Mono S, S200)
T1 sequence (looked up): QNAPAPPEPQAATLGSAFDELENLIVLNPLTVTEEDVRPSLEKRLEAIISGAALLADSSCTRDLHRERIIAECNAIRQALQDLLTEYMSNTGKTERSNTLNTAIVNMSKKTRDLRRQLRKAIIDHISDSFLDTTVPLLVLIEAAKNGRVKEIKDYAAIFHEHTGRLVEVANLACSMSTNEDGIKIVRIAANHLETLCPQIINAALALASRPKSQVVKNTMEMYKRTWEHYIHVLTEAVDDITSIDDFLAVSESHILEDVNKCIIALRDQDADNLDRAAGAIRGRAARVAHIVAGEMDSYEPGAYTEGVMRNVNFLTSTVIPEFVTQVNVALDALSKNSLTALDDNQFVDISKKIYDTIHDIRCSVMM
The experiment in a line: ITC; vinculin D1 titrated into an equimolar mixture of αT-catenin N1-N2 and M1-M3; 25 °C; 20 mM Hepes pH 8.0, 150 mM NaCl, 1 mM TCEP. As to conditions: both partners purified.

Experiment [2] concerns the target 2I27–αT-catenin M1-M3 (aa 259–667)-2I27 (UniProt Q65CL1). Nature of the experiment: ITC; vinculin D1 injected into αT-catenin or αE-catenin fragment (or αT-catenin head–β-catenin complex) in the cell; 25 °C; 20 mM Hepes pH 8.0, 150 mM NaCl, 1 mM TCEP.
For experiment [3], the target named is T2, αE-catenin M1-M3 (aa 273–651) (Mus musculus, UniProt P26231 273-651).
T2 construct: αE-catenin, Mus musculus, M1-M3, aa 273-651; in pGEX-TEV; also called αE-catenin M1-M3 (273–651); source: E. coli BL21-Gold, purified (glutathione-agarose, TEV cleavage, Mono Q or Mono S, S200)
T2 sequence (looked up): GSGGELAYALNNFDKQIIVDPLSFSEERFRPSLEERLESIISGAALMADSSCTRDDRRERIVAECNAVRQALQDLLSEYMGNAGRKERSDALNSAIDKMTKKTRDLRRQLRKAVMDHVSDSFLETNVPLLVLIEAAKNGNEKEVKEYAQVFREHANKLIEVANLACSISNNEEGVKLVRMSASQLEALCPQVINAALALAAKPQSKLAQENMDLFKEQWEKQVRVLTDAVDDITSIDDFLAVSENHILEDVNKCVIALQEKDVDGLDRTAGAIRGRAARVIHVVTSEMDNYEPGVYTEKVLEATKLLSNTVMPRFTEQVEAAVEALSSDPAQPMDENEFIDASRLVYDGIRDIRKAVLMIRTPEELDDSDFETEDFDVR
The description is as above. The settings on record: both partners purified.

Experiment [4] addresses T3, αT-catenin N2-M3 (aa 147–626) (Mus musculus, UniProt Q65CL1 147-626).
T3 construct: αT-catenin, Mus musculus, N2-M3, aa 147-626; in pGEX-TEV; also called αT-catenin N2-M3 (147–626); source: E. coli BL21-Gold, purified (glutathione-agarose, TEV cleavage, Mono Q or Mono S, S200)
T3 sequence (looked up): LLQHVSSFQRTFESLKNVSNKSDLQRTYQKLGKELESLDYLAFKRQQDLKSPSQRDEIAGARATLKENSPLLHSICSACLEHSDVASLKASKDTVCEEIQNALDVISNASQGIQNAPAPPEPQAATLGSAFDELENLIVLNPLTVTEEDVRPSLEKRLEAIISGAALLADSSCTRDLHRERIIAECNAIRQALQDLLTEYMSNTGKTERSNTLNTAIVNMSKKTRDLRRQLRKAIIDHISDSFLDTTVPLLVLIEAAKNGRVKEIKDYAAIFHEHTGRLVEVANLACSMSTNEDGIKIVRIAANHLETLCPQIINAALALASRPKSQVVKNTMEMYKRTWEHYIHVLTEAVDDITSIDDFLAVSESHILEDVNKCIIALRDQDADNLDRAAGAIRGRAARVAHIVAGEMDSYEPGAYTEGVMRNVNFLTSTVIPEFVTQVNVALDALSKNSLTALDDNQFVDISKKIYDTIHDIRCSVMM
The description is as above. The settings on record: both partners purified.

B1: vinculin D1 (aa 1–259) (domain or fragment, UniProt P12003 1-259, looked up)
chain: MPVFHTRTIESILEPVAQQISHLVIMHEEGEVDGKAIPDLTAPVSAVQAAVSNLVRVGKETVQTTEDQILKRDMPPAFIKVENACTKLVRAAQMLQADPYSVPARDYLIDGSRGILSGTSDLLLTFDEAEVRKIIRVCKGILEYLTVAEVVETMEDLVTYTKNLGPGMTKMAKMIDERQQELTHQEHRVMLVNSMNTVKELLPVLISAMKIFVTTKNTKSQGIEEALKNRNFTVEKMSAEINEIIRVLQLTSWDEDAWA
notes: vinculin D1 fragment, aa 1-259, the first 2 four-helix bundles; in pGEX-TEV; also called vinculin aa 1 to 259 (D1); vinculin N-terminus; source: E. coli BL21-Gold, purified (glutathione-agarose, TEV cleavage, Mono Q or Mono S, S200)
With B1, the Kd in experiment [1] is 50.1 ± 17.5 nM; in experiment [2], 245 nM; in experiment [3] it was 10400 ± 4590 nM; in experiment [4] it was 50.2 ± 40.4 nM. The dH in experiment [1] was -3.1 ± 0.1 kcal/mol; in experiment [2], 4.8 kcal/mol; in experiment [3] it was 12.8 ± 5.2 kcal/mol; in experiment [4], 4 ± 0.1 kcal/mol.
